Paper PMC8154130
Where two headings read alike, the source gives them in different places.

What was measured:
Experiment in all cases: EMSA
[1] = target: T1, C-terminal truncated DDX3X (1-582) (Homo sapiens, UniProt O00571)
[2] = target: T1, C-terminal truncated DDX3X (1-582); remark: listed apart in the source
[3] = target: T1, C-terminal truncated DDX3X (1-582); remark: listed apart in the source
[4] = target: T1, C-terminal truncated DDX3X (1-582); remark: listed apart in the source
[5] = target: T1, C-terminal truncated DDX3X (1-582); remark: listed apart in the source

B1: B:B (dsRNA)
RNA 1: UUUUUUUUUUUUUUUUUUUUGGCGGCCGCC
RNA 2: B1 RNA 1
B1 gave a Kd [1] of 285 ± 18 nM and a Kd [2] of 114 ± 10 nM.

B2: D:E (dsRNA)
RNA 1: CUCAACUCAACCCUUCAUCUCAACUCAACCCUUCAU
RNA 2: AUGAAGGGUUGAGUUGAGAUGAAGGGUUGAGUUGAG
B2: no binding [3].

B3: A:A (dsRNA)
RNA 1: GGCGGCCGCC
RNA 2: GGCGGCCGCC
B3: no binding [3].

For UUUUUUUUUUUUUUUUUUUUGGUGGUUGUG (ssRNA) [C], the Kd [4] was 217 ± 60 nM and the Kd [5] was 298 ± 31 nM.
